According to publication doi:10.1101/2023.02.03.526715 (bioRxiv, 2023):

Biological target: recombinant human cardiac troponin I tagged with GST (human, UniProt P19429 1-210)
Assay: ELISA

Sequence of recombinant human cardiac troponin I tagged with GST (P19429 whole entry): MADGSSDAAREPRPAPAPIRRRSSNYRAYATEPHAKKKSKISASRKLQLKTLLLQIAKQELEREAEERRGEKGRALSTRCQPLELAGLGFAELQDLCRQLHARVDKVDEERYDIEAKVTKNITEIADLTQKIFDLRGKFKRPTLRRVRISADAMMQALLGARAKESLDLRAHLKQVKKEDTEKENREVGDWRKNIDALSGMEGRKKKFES

B1: P888, ten amino acid peptide corresponding to ATP synthase subunit d residues 2-11 (peptide)
peptide: AGRKLALKTI
binding result: binds
